{"source": "paper PMC9569855", "about": "(2022)", "target": "SARS-CoV-2 wild type RBD (319-541aa) (SARS-CoV-2, UniProt P0DTC2 319-541)", "test": "SPR"}
{"binder": "Bamlanivimab (antibody, V domains shown) VH: QVQLVQSGAEVKKPGSSVKVSCKASGGTFSNYAISWVRQAPGQGLEWMGRIIPILGIANYAQKFQGRVTITADKSTSTAYMELSSLRSEDTAVYYCARGYYEARHYYYYYAMDVWGQGTAVTVSS VL: not shown", "values": [{"measurement": "koff", "value": 0.0014, "unit": "s⁻¹"}]}
